Measured values: patent publication EP0651797B1
Values belong to the substance of their own block, whether it stands above or below them.

Experiments:
[1] = target: human B7 antigen on cells (human) (UniProt P33681); experiment: FACS staining of highly enriched tonsillar B cells, Donor 1
[2] = target: human B7 antigen on cells (human) (UniProt P33681); experiment: FACS staining of highly enriched tonsillar B cells, Donor 2
[3] = target: human B7 antigen on cells (human) (UniProt P33681); experiment: cell-based or functional assay
[4] = target: human B7 antigen on cells (human) (UniProt P33681); experiment: FACS of tonsillar B cells cultured for 5 days with immobilized anti-(IgM) antibodies and IL-2
[5] = target: human CD40 on cells (human) (UniProt P25942); experiment: FACS staining of highly enriched tonsillar B cells
[6] = target: CD3 on cells of tonsillar B cell preparations (human) (UniProt P07766); experiment: FACS staining of highly enriched tonsillar B cells, Donor 1
[7] = target: CD3 on cells of tonsillar B cell preparations (human) (UniProt P07766); experiment: FACS staining of highly enriched tonsillar B cells, Donor 2
[8] = target: CD3 on cells of tonsillar B cell preparations (human) (UniProt P07766); experiment: FACS staining of highly enriched tonsillar B cells
[9] = target: LeuM3 on cells of tonsillar B cell preparations (human) (UniProt P08571); experiment: FACS staining of highly enriched tonsillar B cells
UniProt P08571, sequence (P08571 20-345): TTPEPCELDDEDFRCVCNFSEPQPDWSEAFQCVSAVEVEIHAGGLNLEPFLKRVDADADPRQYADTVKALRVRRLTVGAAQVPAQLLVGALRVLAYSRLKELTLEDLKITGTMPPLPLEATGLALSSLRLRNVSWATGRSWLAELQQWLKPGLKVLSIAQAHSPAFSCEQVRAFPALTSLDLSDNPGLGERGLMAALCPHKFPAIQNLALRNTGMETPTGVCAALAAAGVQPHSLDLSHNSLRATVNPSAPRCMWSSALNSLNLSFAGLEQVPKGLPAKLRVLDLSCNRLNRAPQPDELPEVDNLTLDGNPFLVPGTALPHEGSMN

UniProt P33681, sequence (P33681 35-288): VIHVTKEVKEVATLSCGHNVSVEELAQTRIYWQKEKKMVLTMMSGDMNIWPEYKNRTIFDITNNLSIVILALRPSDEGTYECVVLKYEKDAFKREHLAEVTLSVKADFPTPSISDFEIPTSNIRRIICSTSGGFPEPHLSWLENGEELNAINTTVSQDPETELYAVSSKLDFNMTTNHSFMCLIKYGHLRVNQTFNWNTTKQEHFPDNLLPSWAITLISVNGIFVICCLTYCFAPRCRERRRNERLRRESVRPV
UniProt P25942, sequence (P25942 21-277): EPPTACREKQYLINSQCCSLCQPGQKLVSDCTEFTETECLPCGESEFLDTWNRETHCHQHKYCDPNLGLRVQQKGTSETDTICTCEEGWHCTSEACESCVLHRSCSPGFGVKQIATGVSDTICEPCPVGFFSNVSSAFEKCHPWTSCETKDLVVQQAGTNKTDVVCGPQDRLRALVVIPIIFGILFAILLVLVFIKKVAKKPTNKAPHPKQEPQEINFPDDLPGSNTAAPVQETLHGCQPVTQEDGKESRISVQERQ

% of Positive Cells [1]: 12.6% | % of Positive Cells [2]: 16.8% | T-cell proliferation in a secondary MLC; B7-24 0.025 µg/ml, CsA 3 x 10^-7 M (CPM (by the footnote)) [3]: 6 | T-cell proliferation in a secondary MLC; B7-24 0.025 µg/ml, CsA 6 x 10^-7 M (CPM (by the footnote)) [3]: 6 | T-cell proliferation in a secondary MLC; B7-24 0.025 µg/ml, CsA 10^-7 M (CPM (by the footnote)) [3]: 6 | T-cell proliferation in a secondary MLC; B7-24 0.025 µg/ml, no CsA (CPM (by the footnote)) [3]: 47 | T-cell proliferation in a secondary MLC; B7-24 0.25 µg/ml, CsA 3 x 10^-7 M (CPM (by the footnote)) [3]: 2 | T-cell proliferation in a secondary MLC; B7-24 0.25 µg/ml, CsA 6 x 10^-7 M (CPM (by the footnote)) [3]: 3 | T-cell proliferation in a secondary MLC; B7-24 0.25 µg/ml, CsA 10^-7 M (CPM (by the footnote)) [3]: 3 | T-cell proliferation in a secondary MLC; B7-24 0.25 µg/ml, no CsA (CPM (by the footnote)) [3]: 33 | T-cell proliferation in a secondary MLC; B7-24 2.5 µg/ml, CsA 3 x 10^-7 M (CPM (by the footnote)) [3]: 3 | T-cell proliferation in a secondary MLC; B7-24 2.5 µg/ml, CsA 6 x 10^-7 M (CPM (by the footnote)) [3]: 3 | T-cell proliferation in a secondary MLC; B7-24 2.5 µg/ml, CsA 10^-7 M (CPM (by the footnote)) [3]: 3 | T-cell proliferation in a secondary MLC; B7-24 2.5 µg/ml, no CsA (CPM (by the footnote)) [3]: 40 | T-cell proliferation in secondary MLC; B7-24 0.025 µg/ml, CsA 3 x 10^-6M [3]: 939 CPM | T-cell proliferation in secondary MLC; B7-24 0.025 µg/ml, CsA 3 x 10^-7M [3]: 1570 CPM | T-cell proliferation in secondary MLC; B7-24 0.025 µg/ml, CsA 6 x 10^-6M [3]: 897 CPM | T-cell proliferation in secondary MLC; B7-24 0.025 µg/ml, CsA 6 x 10^-7M [3]: 1590 CPM | T-cell proliferation in secondary MLC; B7-24 0.025 µg/ml, CsA 10^-7M [3]: 2820 CPM | T-cell proliferation in secondary MLC; B7-24 0.025 µg/ml, no CsA [3]: 29400 CPM | T-cell proliferation in secondary MLC; B7-24 0.25 µg/ml, CsA 3 x 10^-6M [3]: 545 CPM | T-cell proliferation in secondary MLC; B7-24 0.25 µg/ml, CsA 3 x 10^-7M [3]: 559 CPM | T-cell proliferation in secondary MLC; B7-24 0.25 µg/ml, CsA 6 x 10^-6M [3]: 553 CPM | T-cell proliferation in secondary MLC; B7-24 0.25 µg/ml, CsA 6 x 10^-7M [3]: 788 CPM | T-cell proliferation in secondary MLC; B7-24 0.25 µg/ml, CsA 10^-6M [3]: 601 CPM | T-cell proliferation in secondary MLC; B7-24 0.25 µg/ml, CsA 10^-7M [3]: 882 CPM | T-cell proliferation in secondary MLC; B7-24 0.25 µg/ml, no CsA [3]: 20800 CPM | T-cell proliferation in secondary MLC; B7-24 2.5 µg/ml, CsA 3 x 10^-6M [3]: 609 CPM | T-cell proliferation in secondary MLC; B7-24 2.5 µg/ml, CsA 3 x 10^-7M [3]: 697 CPM | T-cell proliferation in secondary MLC; B7-24 2.5 µg/ml, CsA 6 x 10^-6M [3]: 971 CPM | T-cell proliferation in secondary MLC; B7-24 2.5 µg/ml, CsA 6 x 10^-7M [3]: 790 CPM | T-cell proliferation in secondary MLC; B7-24 2.5 µg/ml, CsA 10^-6M [3]: 601 CPM | T-cell proliferation in secondary MLC; B7-24 2.5 µg/ml, CsA 10^-7M [3]: 1160 CPM | T-cell proliferation in secondary MLC; B7-24 2.5 µg/ml, no CsA [3]: 25200 CPM | percentage of cells positive [4]: 25 percent
Substance: anti-B7 monoclonal antibody B7-24

% of Positive Cells [5]: 92.1%
Substance: anti-(CD40) monoclonal antibody G28.5

% of Positive Cells [6]: 8% | % of Positive Cells [7]: 2.1% | % of Positive Cells [8]: 2.1%
Substance: anti-(CD3) monoclonal antibody OKT3

% of Positive Cells [9]: 2.5%
Substance: anti-(LeuM3) monoclonal antibody
